Molecular target: riMod, retro-inverso model peptide
Experiment: ELISA, immobilised riMod-BSA

Work on “non-immune mouse serum (polyclonal serum or antibody)” yielded a titre (reciprocal of highest serum dilution) of 80.
